In the supplement of paper PMC10126150:
± gives the standard deviation of the averaged measurements.
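Also: ATP exposure 15 min at 22 °C before imaging.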

Each sequence was assayed on ATP (assay: switch fluorescence ratio, 500 uM ATP over buffer (Cy3 cluster intensity, sum of 5 cycles each) (fold (ratio)); higher = stronger signal-on switching upon ATP binding; sequences stand for … in TCGTCGGCAGCGTCAGATGTGTATAAGAGACAGTTTTTTTTTTTTTTTTTTTTTTTTT…TC). Conditions: aptamer strand: ATP DNA aptamer (quencher-CACCTGGGGGAGTATTGCGGAGGAAGG + anchor), 100 nM annealed; ATP concentration: 500 uM.
Summary of the method: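 Switching-strand clusters labelled with Cy3 on a modified Illumina MiSeq flow-cell were annealed to 100 nM quencher-labelled ATP aptamer, imaged in selection buffer, and re-imaged after 15 min with 500 uM ATP at 22 °C. This was done over five cycles with NaOH stripping and re-annealing in between. The fluorescence ratio is summed target-cycle over summed buffer-cycle Cy3 intensity per cluster, averaged per switch-domain sequence, excluding clusters outside 100-1000 RFU.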
TTTTTTTCT was tested, and the switch fluorescence ratio was 1.01 ± 0.046. Work on ACATAAAGGG yielded a switch fluorescence ratio of 1.03 ± 0.024. Work on GGCCCGGGGT yielded a switch fluorescence ratio of 1.44 ± 0.37. AGGGGCACGG was tested, and the switch fluorescence ratio was 1.02 ± 0.0093. In the case of TTGAAGGGGA, the switch fluorescence ratio is reported as 0.9736 ± 0.0039. GAAGTTTGTT gave a switch fluorescence ratio of 0.98 ± 0.026. Work on TCAAACTTAT yielded a switch fluorescence ratio of 1.05 ± 0.027. For TCCCGGCAGA, the switch fluorescence ratio was 0.997 ± 0.013. With ACGTAGAAAT the switch fluorescence ratio was 1.35 ± 0.022. Sequence CGTTTTTCCG has a switch fluorescence ratio of 1.08 ± 0.032. With TAAAAAATGT the switch fluorescence ratio was 1 ± 0.019. AAGCGGGGAG showed a switch fluorescence ratio of 1.04 ± 0.04. In the case of TCGCATAGGT, the switch fluorescence ratio is reported as 1.1 ± 0.12. For TGCAGCATTA, the switch fluorescence ratio was 2.31 ± 0.19. TTTAGAAGGA was tested, and the switch fluorescence ratio was 0.9796 ± 0.0067. Work on TTTAAAGGGG yielded a switch fluorescence ratio of 1.05 ± 0.14. Sequence TCTTAGGGGA has a switch fluorescence ratio of 0.998 ± 0.017. Work on AGGTGTGAGC yielded a switch fluorescence ratio of 1.03 ± 0.012. Work on GTGGATAGGT yielded a switch fluorescence ratio of 1.01 ± 0.045. With CCGTTAGTGG the switch fluorescence ratio was 1.04 ± 0.042. AGTGTTACGT was tested, and the switch fluorescence ratio was 0.989 ± 0.042. GCATGGGGAT was tested, and the switch fluorescence ratio was 1.02 ± 0.051. TTCTTCATAG was tested, and the switch fluorescence ratio was 1.02 ± 0.015. Sequence TTGAAGAGGT has a switch fluorescence ratio of 0.976 ± 0.049. GAACGAGGGT gave a switch fluorescence ratio of 0.9676 ± 0.0013. With TTGTTGTGTG the switch fluorescence ratio was 0.973 ± 0.033. TAGCCCTGCT showed a switch fluorescence ratio of 1.033 ± 0.0087. Sequence CGGAGGGGAG has a switch fluorescence ratio of 0.977 ± 0.011. With CTAGGGGGGC the switch fluorescence ratio was 1 ± 0.093. In the case of TTAAGCGTAG, the switch fluorescence ratio is reported as 1.01 ± 0.013. In the case of TTAAAAATGC, the switch fluorescence ratio is reported as 1.02 ± 0.011. With TGTTGGGAGA the switch fluorescence ratio was 1 ± 0.025. With CTGGCAGGAA the switch fluorescence ratio was 1.01 ± 0.051. In the case of GATTTAGGAC, the switch fluorescence ratio is reported as 0.967 ± 0.044. With GGTGTGCCAT the switch fluorescence ratio was 0.9897 ± 0.0069. GTGGTTTTTT gave a switch fluorescence ratio of 0.996 ± 0.022. GTCGTCGGCG showed a switch fluorescence ratio of 1.02 ± 0.025. GATAATGAAC showed a switch fluorescence ratio of 1.02 ± 0.02. TAGGTTTTGT showed a switch fluorescence ratio of 1 ± 0.044. Sequence CAGTGGCTTC has a switch fluorescence ratio of 1.01 ± 0.023. With TGATGGCATT the switch fluorescence ratio was 0.9893 ± 0.0071. Work on TTACCAGATT yielded a switch fluorescence ratio of 0.982 ± 0.033. In the case of TGTGTGGCGT, the switch fluorescence ratio is reported as 1.003 ± 0.0042. With ATTTGCCCGA the switch fluorescence ratio was 1 ± 0.012. TGGGTCAGTC was tested, and the switch fluorescence ratio was 1.05 ± 0.021. In the case of TCGAACGTTT, the switch fluorescence ratio is reported as 1.324 ± 0.0088. Work on ATACGAGGTG yielded a switch fluorescence ratio of 1.07 ± 0.035. Work on TTTTCGAAAA yielded a switch fluorescence ratio of 1.03 ± 0.075. In the case of AGATGCCGAC, the switch fluorescence ratio is reported as 1.02 ± 0.054. TCGGAGCAGG was tested, and the switch fluorescence ratio was 1.4 ± 0.058. TTTTCTACAG showed a switch fluorescence ratio of 1 ± 0.022. In the case of GAGTGGTTAG, the switch fluorescence ratio is reported as 0.9884 ± 0.0017. Sequence TCGACGGGAT has a switch fluorescence ratio of 2.42 ± 0.31. Sequence GGCTTTTTTC has a switch fluorescence ratio of 0.993 ± 0.021. In the case of CTTTGGGGTT, the switch fluorescence ratio is reported as 1.01 ± 0.032. With TTTGATTCAC the switch fluorescence ratio was 1.02 ± 0.041. For TTTTGATTAG, the switch fluorescence ratio was 1.006 ± 0.0015. GTTATCATTT gave a switch fluorescence ratio of 0.989 ± 0.011. GCCGGGATTG showed a switch fluorescence ratio of 0.976 ± 0.029. Work on GAAGGTTTGT yielded a switch fluorescence ratio of 1.002 ± 0.01. Work on CTTTGGCAGC yielded a switch fluorescence ratio of 1.06 ± 0.017. Sequence TAGGGGCCGT has a switch fluorescence ratio of 1.02 ± 0.05. Work on ATGGTAAGT yielded a switch fluorescence ratio of 0.9815 ± 0.0057. GATGGGCGGG gave a switch fluorescence ratio of 1.03 ± 0.055. In the case of CGCAGAAACG, the switch fluorescence ratio is reported as 1 ± 0.036. TGGGGCACAT gave a switch fluorescence ratio of 1.02 ± 0.022. For CAGATGTACC, the switch fluorescence ratio was 1.08 ± 0.028. Sequence TTACTGAAAA has a switch fluorescence ratio of 1.04 ± 0.025. GTTGGGTGAG showed a switch fluorescence ratio of 0.987 ± 0.02. ATAATTAATT showed a switch fluorescence ratio of 0.958 ± 0.03. In the case of TAAACGGGTA, the switch fluorescence ratio is reported as 1.04 ± 0.02. CAATAGATGT was tested, and the switch fluorescence ratio was 1.042 ± 0.0021. Work on GGGGGTGTTG yielded a switch fluorescence ratio of 1 ± 0.04. In the case of TGTAGCAGGT, the switch fluorescence ratio is reported as 1.155 ± 0.0025. GTTTATGCAC showed a switch fluorescence ratio of 1.06 ± 0.084. GCTTATAGGC was tested, and the switch fluorescence ratio was 0.97 ± 0.032. TTGGGGCTGG was tested, and the switch fluorescence ratio was 1.01 ± 0.013. For CGAGTTTCGG, the switch fluorescence ratio was 1.011 ± 0.0073. For TAAGAATTCC, the switch fluorescence ratio was 1.08 ± 0.047. AACCAGTGCG was tested, and the switch fluorescence ratio was 1.08 ± 0.032. Work on TTCTGCCCC yielded a switch fluorescence ratio of 1.01 ± 0.033. TCAATATTGG was tested, and the switch fluorescence ratio was 1.008 ± 0.0098. Work on AATGGGTTCA yielded a switch fluorescence ratio of 1.021 ± 0.0062. TCGGGTTGGG was tested, and the switch fluorescence ratio was 0.975 ± 0.023. ATTGGGGGGA gave a switch fluorescence ratio of 0.982 ± 0.018. Sequence ACTTGAAAAT has a switch fluorescence ratio of 1.002 ± 0.0095. For GAACGAACGG, the switch fluorescence ratio was 1.08 ± 0.06. TTGATCCGGG showed a switch fluorescence ratio of 1.1 ± 0.055. Work on AGGGGGGACT yielded a switch fluorescence ratio of 0.993 ± 0.011. TTTGTTGTAT was tested, and the switch fluorescence ratio was 1 ± 0.032. Work on AGAAAGGCGG yielded a switch fluorescence ratio of 0.9715 ± 0.0027. In the case of AATTGATCGT, the switch fluorescence ratio is reported as 0.982 ± 0.024. AAAGGCGTAA gave a switch fluorescence ratio of 0.997 ± 0.013. Work on AAGGAGTAGC yielded a switch fluorescence ratio of 1.04 ± 0.095. CGTTGGCACG showed a switch fluorescence ratio of 0.997 ± 0.04. Sequence GGTTAAAACT has a switch fluorescence ratio of 0.987 ± 0.048. With AAATTTGTTG the switch fluorescence ratio was 0.992 ± 0.011. In the case of GGCTATTGAT, the switch fluorescence ratio is reported as 1.004 ± 0.0073. With GGAATTGTCC the switch fluorescence ratio was 1.44 ± 0.69. Work on GATAGTGAGG yielded a switch fluorescence ratio of 0.9935 ± 0.0021. Work on TCCGTAAACG yielded a switch fluorescence ratio of 1.09 ± 0.041. In the case of TATTGAGCGT, the switch fluorescence ratio is reported as 1 ± 0.044. Sequence ATCTACGTTG has a switch fluorescence ratio of 1.05 ± 0.012. AAGGGGACCC showed a switch fluorescence ratio of 1.04 ± 0.043. Sequence GGTTGCGATC has a switch fluorescence ratio of 1.08 ± 0.03. For CAGTGTTGGG, the switch fluorescence ratio was 1.002 ± 0.0016. For GGGGTTCTAG, the switch fluorescence ratio was 0.999 ± 0.0042. With ATGGTATATT the switch fluorescence ratio was 1 ± 0.033. Sequence ATTGTGCGTA has a switch fluorescence ratio of 0.9711 ± 0.0057. For TAGTAGGTAG, the switch fluorescence ratio was 0.985 ± 0.025. Work on GGAAGTGGGA yielded a switch fluorescence ratio of 1.018 ± 0.0069. With GTTGGGGGCC the switch fluorescence ratio was 0.997 ± 0.013. For GAAGCGGATG, the switch fluorescence ratio was 1.01 ± 0.031. Sequence AGCCAGGTGG has a switch fluorescence ratio of 1.27 ± 0.14. With GGGTATCTGT the switch fluorescence ratio was 1.01 ± 0.032. Sequence CAGTTTCGTT has a switch fluorescence ratio of 1.02 ± 0.037. TTTCCAGTAA showed a switch fluorescence ratio of 1.036 ± 0.0068. GTAATCGATT showed a switch fluorescence ratio of 1.07 ± 0.022. In the case of CAGTGCATTG, the switch fluorescence ratio is reported as 1.01 ± 0.023. Sequence AAAATAAAGG has a switch fluorescence ratio of 0.976 ± 0.023. With TCGTTGCAGT the switch fluorescence ratio was 1.02 ± 0.018. TGTATTAGTA gave a switch fluorescence ratio of 0.949 ± 0.0089. ATTGGGGGGG was tested, and the switch fluorescence ratio was 1.02 ± 0.044. AAAGTTAATG showed a switch fluorescence ratio of 1.009 ± 0.0074. With GGAAAAGGTT the switch fluorescence ratio was 0.9955 ± 0.0073. TTTGGGGAAA was tested, and the switch fluorescence ratio was 1.16 ± 0.42. In the case of CGCATAGGGT, the switch fluorescence ratio is reported as 1.13 ± 0.012. With GGGGGTCGC the switch fluorescence ratio was 1 ± 0.065. Sequence GATAAAGATA has a switch fluorescence ratio of 1.02 ± 0.043. In the case of CATTGGGCGA, the switch fluorescence ratio is reported as 0.982 ± 0.022. With AGGGGCGGGC the switch fluorescence ratio was 0.884 ± 0.13. With TATGATGGGC the switch fluorescence ratio was 0.9577 ± 0.0057. In the case of TCGCGGGCTA, the switch fluorescence ratio is reported as 1.04 ± 0.046. In the case of GACTGATACC, the switch fluorescence ratio is reported as 1.17 ± 0.035. For GTGAGTGGTG, the switch fluorescence ratio was 0.978 ± 0.015. For CGGTAAAGCG, the switch fluorescence ratio was 0.9808 ± 0.0071. For GATTAGGGGA, the switch fluorescence ratio was 1.01 ± 0.015. TAGGGGCGTG was tested, and the switch fluorescence ratio was 0.998 ± 0.039. In the case of GGGCCCATTG, the switch fluorescence ratio is reported as 0.963 ± 0.04. TATAGAAGCG showed a switch fluorescence ratio of 1.01 ± 0.021. TGAGGCGGGG showed a switch fluorescence ratio of 0.9642 ± 0.0059. GTGATGCTGC was tested, and the switch fluorescence ratio was 1.07 ± 0.015. Work on CCAAGCGTGC yielded a switch fluorescence ratio of 1.76 ± 0.64. CGGCTATGTT showed a switch fluorescence ratio of 0.9712 ± 0.0027. AATTTGGTAC showed a switch fluorescence ratio of 1.068 ± 0.0027. Sequence GGCGCTGAGT has a switch fluorescence ratio of 1.017 ± 0.01. ATGTTAAGAG gave a switch fluorescence ratio of 0.9766 ± 0.0089. TGACCTGAGA was tested, and the switch fluorescence ratio was 1.04 ± 0.021. Sequence ATGGGCCGGG has a switch fluorescence ratio of 0.9955 ± 0.0074. With CGTTGCGCTG the switch fluorescence ratio was 1.01 ± 0.0069. Sequence TCCTCGAGCT has a switch fluorescence ratio of 1.82 ± 1.2. For GCGCCTTGTG, the switch fluorescence ratio was 0.988 ± 0.018. In the case of TGGGGCCCCG, the switch fluorescence ratio is reported as 1 ± 0.013. GTATGCCGTC showed a switch fluorescence ratio of 0.988 ± 0.076. Work on GGGTTGTGAA yielded a switch fluorescence ratio of 0.994 ± 0.037. With TGGAAAGCCT the switch fluorescence ratio was 1.05 ± 0.1. In the case of GGGAACCGGA, the switch fluorescence ratio is reported as 1.03 ± 0.17.
